Measurements as given in patent US20090202574A1, “METHODS OF IMMUNE OR HAEMATOLOGICAL ENHANCEMENT, INHIBITING TUMOUR FORMATION OR GROWTH, AND TREATING OR PREVENTING CANCER” (priority 2004, published 2009).

Legend:
[1] = tested on: Lewis lung carcinoma (LLC) tumours; experiment: Lewis lung carcinoma tumour growth in mice; assay type: in vivo, C57BL/6 mice; details: Example 18; 28 g Fe-Lf per 2.4 Kg diet; epirubucin 15 mg/Kg i.p.
Protocol: (§1) Tumors were established by s.c. injection of 2×10^5 EL-4 cells into the left flank of mice, and growth determined by measuring two perpendicular diameters. Animals were euthanased when tumors reached more than 1.0 cm in diameter, in accord with Animal Ethics Approval (University of Auckland). All experiments included 5 mice per treatment group, unless otherwise indicated. Paclitaxel (30 mg dissolved in 5 ml of Cremophor® EL and dehydrated alcohol) was diluted in 0.9% NaCl and administered i.p. at 30 mg/Kg. Doxorubucin in water was injected i.p. at 15 mg/Kg. The drugs were injected in a volume of 0.01 to 0.02 ml/g body weight. The expression vector encoding mouse B7-1 was prepared by cesium chloride gradient centrifugation, and diluted to 5 μg/μl in a solution of 5% glucose in 0.01% Triton X-100. It was mixed in a ratio of 1:1 (wt:wt) with DOTAP cationic liposomes (Boehringer Mannheim, Germany). Tumors were injected with 180 μl of DNA (180 μg)/liposome complexes, as described previously (Kanwar, et al., 1999 and Kanwar, et al., 2000).
(§2) Mice were fed the control diet, and the same diet supplemented with 28 g of 100% Fe-saturated lactoferrin per 2.4 Kg of diet. EL-4 (2×10^5), Lewis lung carcinoma (LLC, 2×10^5), and B16 melanoma (2×10^5) tumour cells were injected into the left flanks of C57BL/6 mice following two weeks on the Lf diets, or control diet. […]

B16 melanoma tumours = experiment: B16 melanoma tumour growth in mice; assay type: in vivo, C57BL/6 mice; details: Example 18; 28 g Fe-Lf per 2.4 Kg diet; fluorouracil 150 mg/Kg i.p.
Protocol: as §1, §2

LLC target cells = experiment: Anti-tumour cytolytic activity of splenocytes against LLC target cells; assay type: in vivo, C57BL/6 mice; details: Example 18, FIG. 14B (epirubucin experiment), vs controls
Protocol: (§3) Splenocytes were tested for their cytolytic activity against tumour target cells. […] Referring to FIGS. 14B, D, and F the percent cytotoxicity is plotted against various effector-to-target cell ratios (E:T ratios); each point represents the mean percent cytotoxicity obtained from 5 mice; and the bar represents 95% confidence intervals.

B16 target cells = experiment: Anti-tumour cytolytic activity of splenocytes against B16 target cells; assay type: in vivo, C57BL/6 mice; details: Example 18, FIG. 14D (fluorouracil experiment), vs controls
Protocol: as §3

EL-4 tumours = experiment: Apoptotic index of tumour sections (TUNEL, annexin-V-fluos); assay type: in vivo, C57BL/6 mice; details: Example 7; vs mice fed control diet; P<0.001
Protocol: For in situ detection of apoptotic cells, tumors were excised and immediately frozen in dry ice, and stored at −70° C. Frozen serial sections of 6-μm thickness were fixed with paraformaldehyde solution (4% in PBS, pH 7.4), and permeabilized with a solution containing 0.1% Triton X-100 and 0.1% sodium citrate. They were incubated with 20 μl TUNEL reagent (In Situ apoptosis detection kit from Boehringer Mannheim, Germany) for 60 min at 37° C., and examined by fluorescence microscopy. Adjacent sections were counter-stained with haematoxylin to count the total number of cells, or the number of apoptotic cells in ten randomly selected fields (magnification of ×40). The apototic index (AI) was calculated as the number of apoptotic cells×100/total number of nucleated cells. For detection of apoptotic cells in vitro, the numbers of apoptotic and necrotic tumour cells were measured by staining with annexin-V-fluos, TUNEL, and trypan blue, as described previously (Kanwar, et al., 2001).
Sections were prepared from tumours of mice shown in FIGS. 4A and 4B at day 56 for the untreated control group fed the control diet, at day 70 for the groups fed either the control or iron-saturated bovine lactoferrin diet receiving paclitaxel and/or doxorubicin, and 7 days after treatment with drugs for mice fed the control diet. […]

[2] = Blood haematological profile (red and white blood cell counts); assay type: in vivo, mice; details: blood from the heart at autopsy; mean
Protocol: The red and white blood cell counts of mice sacrificed in the preceding examples were recorded. Oral feeding of bovine iron-saturated lactoferrin alone or in combination with administration of paclitaxel or doxorubicin or both increased the mean values of red and white blood cells compared to control mice and compared to mice administered paclitaxel and doxorubicin but not fed lactoferrin, as shown in Table 1.

[3] = tested on: Th1 (IL-18, TNF-α, IFN-γ) and Th2 (IL-4, IL-5, IL-6, IL-10) cytokines; experiment: ELISA of Th1 and Th2 cytokines in intestine and tumour; assay type: in vivo, mice; details: Example 14
Protocol: (§4) Cytokine levels in the supernatants of homogenates of the small intestine were determined using a “sandwich” ELISA kit (Endogen, Woburn, Mass.). They were detected within standard curve ranges of 15-375 pg/ml for IL-4, 0-2450 pg/ml for IL-5, 15-1000 pg/ml for TNF-α, 0-3000 pg/ml for IFN-γ, 37-3000 pg/ml for IL-10, 31.3-2000 pg/ml for IL-12, and 31.3-2000 pg/ml for IL-18, respectively. Quantification of nitrite, indicative of NO production, was carried out by the Griess reaction (Sigma, USA). The results are expressed as the mean nitrite concentration (μM)±SD.
The ability of oral iron-saturated lactoferrin to affect the expression of a panel of Th1 and Th2 cytokines was examined in non-tumour-bearing mice, and in tumour-bearing mice fed iron-saturated bovine lactoferrin or the control diet, and treated with either paclitaxel or doxorubicin or a combination of the two drugs.

IL-18 = IL-18 production by cultured intestinal loops; assay type: cell-based, mice; details: Example 20; 400 and 800 μg/ml; 48 h; vs bovine serum albumin control protein
Protocol: as §4
100% Fe-saturated Lf, natural Lf (less than 20% iron saturated), and bovine serum albumin control were added at 400 and 800 μg/ml to intestinal loops (2.5 cm segments of the small intestine) prepared from healthy 6 to 7 week-old female mice, which were kept in culture for 48 h. IL-18 levels released by the intestinal loops, and present in the supernatants of homogenates of the small intestine were determined using a “sandwich” ELISA kit as described above.

B1: iron-saturated bovine lactoferrin: Iron-saturated bovine lactoferrin extract (100% saturated) prepared from natural bLf (protein)
chain: APRKNVRWCTISQPEWFKCRRWQWRMKKLGAPSITCVRRAFALECIRAIAEKKADAVTLDGGMVFEAGRDPYKLRPVAAEIYGTKESPQTHYYAVAVVKKGSNFQLDQLQGRKSCHTGLGRSAGWIIPMGILRPYLSWTESLEPLQGAVAKFFSASCVPCIDRQAYPNLCQLCKGEGENQCACSSREPYFGYSGAFKCLQDGAGDVAFVKETTVFENLPEKADRDQYELLCLNNSRAPVDAFKECHLAQVPSHAVVARSVDGKEDLIWKLLSKAQEKFGKNKSRSFQLFGSPPGQRDLLFKDSALGFLRIPSKVDSALYLGSRYLTTLKNLRETAEEVKARYTRVVWCAVGPEEQKKCQQWSQQSGQNVTCATASTTDDCIVLVLKGEADALNLDGGYIYTAGKCGLVPVLAENRKSSKHSSLDCVLRPTEGYLAVAVVKKANEGLTWNSLKDKKSCHTAVDRTAGWNIPMGLIVNQTGSCAFDEFFSQSCAPGADPKSRLCALCAGDDQGLDKCVPNSKEKYYGYTGAFRCLAEDVGDVAFVKNDTVWENTNGESTADWAKNLNREDFRLLCLDGTRKPVTEAQSCHLAVAPNHAVVSRSDRAAHVKQVLLHQQALFGKNGKNCPDKFCLFKSETKNLLFNDNTECLAKLGGRPTYEEYLGTEYVTAIANLKKCSTSPLLEACAFLTR
modifications: iron-saturated; Bovine Lactoferrin
notes: Iron-saturated bovine lactoferrin extract (100% saturated) prepared from natural bLf
In the case of B1, the LLC tumour response [1] is reported as “slowed the growth of all three tumour types, but failed to eradicate the tumours altogether”, the B16 tumour response (B16 melanoma tumours) is reported as “slowed the growth of all three tumour types, but failed to eradicate the tumours altogether” and the “increase in anti-tumour cytolytic activity” value (LLC target cells) is reported as 150%. For the same molecule, the “increase in anti-tumour cytolytic activity” value (B16 target cells) was 45%, the “increase in the apoptotic index of tumours” value (EL-4 tumours) was 1.9 fold and the RBCs [2] was 8.2 ± 2.5 ×10^6/mm^3. The WBCs [2] was 3.5 ± 1.2 ×10^3/mm^3, the “cytokines within the tumor site” value [3] was “increased the presence of all cytokines” and the “levels of IL-18 and IL-10 in tumour-bearing mice relative to non-tumour-bearing mice” value ([3]; oral feeding) was “less than half”. The “increase in the levels of IL-18 in the intestine” value (IL-18) was 10 fold.
